Data: US20210047398A1, “ASPROSIN, A FAST-INDUCED GLUCOGENIC PROTEIN HORMONE” (Baylor College of Medicine, priority 2016, published 2021)

What was measured:
[1] = tested on: hepatic glucose production; assay: Hyperinsulinemic-euglycemic clamp; type: in vivo, mice
Method: (§1) Animals. […] MgR heterozygous mice were obtained from Jackson labs, and bred to obtain male MgR homozygous mice and WT littermates. 5-week-old male Ob/Ob mice were obtained from Jackson labs. […] For diet induced obesity studies, mice were placed on the adjusted calories diet providing 60% of calories from fat by Harlan-Teklad for 12 weeks. […] Mice were exposed to 30 μg recombinant His-tagged asprosin or recombinant Green Fluorescent Protein (GFP) daily for 10 days via subcutaneous injection. Mice were sacrificed and plasma and various organs were isolated 10 days after virus or peptide injection. For single dose injections, the same protocol was followed as that for daily injections, followed by collection of plasma at the indicated times via tail bleeds for insulin and glucose measurement. Insulin and glucose tolerance tests (ITT and GTT) were performed using standard procedures. […] For immunologic sequestration experiments, mice were injected intra-peritoneally with a 500 μg dose in saline of a custom-built (Thermo Scientific Inc.) anti-asprosin mouse monoclonal antibody directed against amino acids 106-134 (human profibrillin amino acids 2837-2865) or an equivalent dose of isotype matched IgG (Southern Biotech, Inc.). […] The Baylor College of Medicine Institutional Animal Care and Utilization Committee approved all experiments.

[2] = Plasma asprosin, glucose, insulin and hormones in mice after asprosin gain-of-function; type: in vivo
Method: as §1
Plasma metabolic parameters. Human plasma insulin was measured using a human insulin ELISA kit by Abcam. Mouse plasma insulin was measured using a mouse insulin ELISA kit by Millipore. Mouse plasma glucagon, epinephrine, norepinephrine and corticosterone were measured by the Vanderbilt University Hormone Assay & Analytical Services Core.

[3] = Food intake, energy expenditure and body composition after asprosin gain-of-function; type: in vivo, mice
Method: Mouse food intake and energy expenditure—Food intake and energy expenditure were measured using the CLAMS System (Comprehensive Lab Animal Monitoring System, Columbus Instruments). Animals were acclimatized in the recording chambers for 48-72 hours, and measurements were taken subsequently for 24 hours during the light cycle and dark cycle. Mice received food and water ad libitum, or after an overnight fast where indicated. Oxygen consumption and food intake were recorded.
As previously described (Yan et al., 2016), male mice were anesthetized with inhaled isoflurane and stainless steel cannulas (Plastics One) were inserted into the lateral ventricles (0.34 mm caudal and 1 mm lateral from bregma; depth, 2.3 mm). […] These mice received 10 ng GFP ([…]) twice a day for 3 continuous days, and 10 ng asprosin (in […]) the last day. The BioDAQ food intake monitoring system (Research Diets, Inc) was used to monitor the food intake, and the food intake from the last GFP injection and asprosin were compared.
Mouse body composition—Body composition was analyzed using an ECHO-MRI system (Echo medical systems, Texas) or DEXA scans where indicated. Lean mass, fat mass, and overall body weight were calculated using the manufacturer-provided software.

[4] = tested on: mouse primary hepatocytes; assay: In vitro glucose production assay (media glucose accumulation); settings: 2 hours, 0-1100 nM recombinant asprosin
Method: Cell Culture. Primary mouse hepatocytes were isolated from 8- to 12-week-old WT mice using standard methodology. […] The cells were treated with 50 nM recombinant asprosin or GFP for 10 minutes for cAMP and PKA assays and for 2 hours for the in vitro glucose production assay. Cells were pretreated with various inhibitors for 1 hour prior to treatment with asprosin, GFP, Glucagon or Epinephrine. cAMP was measured from cell lysates using the cAMP direct immunoassay kit from Cell Biolabs. PKA activity was measured from cell lysates using the PKA kinase activity kit from Enzo Lifesciences, Inc. Media glucose content was measured using the Glucose Colorimetric Assay Kit from Biovision. Results were normalized to protein content.

[5] = rat, in vivo, iv
[6] = 2 hours after single 30 μg dose
[7] = daily subcutaneous doses for 10 days

B1: recombinant asprosin: 146 amino acid E. coli expressed fusion protein: 6 amino acid N-terminal His tag and 140 amino acid wild type asprosin (FBN1 2732-2871) (protein)
chain: HHHHHHSTNETDASNIEDQSETEANVSLASWDVEKTAIFAFNISHVSNKVRILELLPALTTLTNHNRYLIESGNEDGFFKINQKEGISYLHFTKKKPVAGTYSLQISSTPLYKKKELNQLEDKYDKDYLSGELGDNLKMKIQVLLH
- hepatic glucose production ([1]; elevated plasma asprosin, 10 days after FBN1 adenovirus (FIG. 21C)): increased hepatic glucose production
- ability of peripheral organs to take up glucose in response to insulin ([1]; glucose disposal rate, FIG. 21D): no impact
- plasma levels of catabolic hormones (glucagon, catecholamines, glucocorticoids) ([2]; 15-20 minutes after single 30 μg dose): no effect
- plasma insulin ([2]; 15 minute time-point after single dose, 2-hour fast): compensatory hyperinsulinemia
- glucose uptake in peripheral organs in glucose- and insulin-tolerance tests [2, 6]: little evidence of altered glucose uptake
- peak glucose levels in glucose- and insulin-tolerance tests [2, 6]: altered peak glucose levels
- glucose and insulin levels ([2]; 10 days of exposure, 2-hour fasted mice): elevated
- blood glucose levels after a single dose ([2]; single 30 μg subcutaneous dose, 2-hour preceding fast): immediate spike
- time to normalized blood glucose levels post injection ([2]; single dose, 2-hour fast): ≤ 60 min
- rate of the blood glucose spike ([2]; single dose, overnight preceding fast, otherwise similar results): somewhat slower
- insulin deficit of MgR mice ([2]; single subcutaneous administration, overnight fasted MgR mice): sufficient to completely rescue the insulin deficit
- orexigenic effect in mice with AgRP neuron ablation ([3]; IP injection, 24 hours cumulative food intake): completely eliminated
- adiposity (fat mass) [3, 7]: increase in adiposity
- energy expenditure [3, 7]: no change in energy expenditure
- food intake [3, 7]: expected hyperphagia
- food intake after intracerebroventricular (ICV) injection ([3]; dark phase, 10 ng ICV): orexigenic effect
- food intake (FIG. 17) ([3]; mice injected with asprosin): hyperphagia
- hypophagia of NPS mice ([3]; single subcutaneous dose): sufficient to completely rescue the hypophagia
- latent phase prior to orexigenic effect ([3]; single subcutaneous dose): latent phase of several hours
- food intake over the next 24-hr ([3]; single subcutaneous dose, C57Bl/6 mice, vs GFP): greater food intake
- media glucose concentration [4]: increase in glucose concentration in a dose-dependent manner
- elevation in CSF asprosin [5]: 6 fold
- his-tag signal in the CSF [5]: strong his-tag signal
